T1: human PD-L2-HIS (human, UniProt Q9BQ51)
T1 chain: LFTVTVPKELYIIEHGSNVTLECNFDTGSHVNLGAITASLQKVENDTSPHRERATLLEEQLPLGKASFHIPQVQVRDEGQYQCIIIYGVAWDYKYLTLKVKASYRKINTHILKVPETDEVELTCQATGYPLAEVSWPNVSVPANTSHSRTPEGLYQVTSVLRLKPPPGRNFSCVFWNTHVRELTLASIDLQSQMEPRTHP

T2: mouse PD-L2-Fc (mouse, UniProt Q9WUL5)
T2 chain: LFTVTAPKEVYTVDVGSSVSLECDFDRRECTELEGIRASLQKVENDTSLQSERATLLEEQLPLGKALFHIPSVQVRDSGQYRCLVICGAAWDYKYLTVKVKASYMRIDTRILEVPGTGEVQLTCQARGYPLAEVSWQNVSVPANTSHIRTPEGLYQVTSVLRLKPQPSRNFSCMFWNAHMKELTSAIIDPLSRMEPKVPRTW

T3: human PD-L2-Fc (human, UniProt Q9BQ51)
T3 chain: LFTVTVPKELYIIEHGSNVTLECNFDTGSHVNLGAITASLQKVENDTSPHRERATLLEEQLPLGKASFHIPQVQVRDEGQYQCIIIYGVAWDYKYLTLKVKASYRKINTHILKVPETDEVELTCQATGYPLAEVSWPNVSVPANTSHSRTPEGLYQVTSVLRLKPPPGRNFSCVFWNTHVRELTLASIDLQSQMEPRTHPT


Key:
human PD-L2-HIS = biological target: T1, human PD-L2-HIS; assay: BLI, monovalent
human PD-L1-Fc [1] = biological target: human PD-L1-Fc (human); assay: BLI
human PD-L1-Fc (human), sequence (chain, as listed by the source): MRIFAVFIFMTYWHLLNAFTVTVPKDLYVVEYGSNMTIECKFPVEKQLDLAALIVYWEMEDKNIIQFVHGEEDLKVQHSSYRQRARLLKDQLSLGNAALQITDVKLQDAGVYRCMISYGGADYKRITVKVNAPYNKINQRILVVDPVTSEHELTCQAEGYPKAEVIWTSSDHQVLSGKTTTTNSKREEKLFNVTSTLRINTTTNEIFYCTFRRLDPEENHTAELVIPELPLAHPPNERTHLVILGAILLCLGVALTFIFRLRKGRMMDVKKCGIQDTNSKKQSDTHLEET

mouse PD-L2-Fc = biological target: T2, mouse PD-L2-Fc; assay: BLI, bivalent
mouse PD-L1-Fc [2] = biological target: T4, mouse PD-L1-Fc (mouse, UniProt Q9EP73); assay: BLI, bivalent
T4 sequence (Q9EP73 19-239): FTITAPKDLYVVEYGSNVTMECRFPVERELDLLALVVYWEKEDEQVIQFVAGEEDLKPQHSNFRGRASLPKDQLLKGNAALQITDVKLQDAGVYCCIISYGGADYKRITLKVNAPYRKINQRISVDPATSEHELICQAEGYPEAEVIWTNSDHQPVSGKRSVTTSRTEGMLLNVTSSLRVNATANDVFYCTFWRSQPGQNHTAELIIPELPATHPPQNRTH

human PD-L2-Fc [3] = biological target: T3, human PD-L2-Fc; assay: BLI, bivalent
human PD1-Fc = human PD1-Fc (human, UniProt Q15116); assay: BLI, bivalent
human PD1-Fc, sequence (Q15116 25-170): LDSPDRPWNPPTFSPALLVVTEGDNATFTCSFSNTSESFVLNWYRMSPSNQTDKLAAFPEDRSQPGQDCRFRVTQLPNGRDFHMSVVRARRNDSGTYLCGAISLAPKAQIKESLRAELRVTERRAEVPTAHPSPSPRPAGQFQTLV

human PD-L2-Fc [4] = biological target: T3, human PD-L2-Fc; assay: BLI, monovalent
mouse PD-L1-Fc [5] = biological target: T4, mouse PD-L1-Fc; assay: BLI, bivalent; remark: listed apart in the source
human PD-L1-Fc [6] = biological target: human PD-L1-Fc (human); assay: BLI, bivalent

binding result (human PD-L2-HIS) | Kd (human PD-L1-Fc [1]) [nM] | binding result (mouse PD-L2-Fc) | Kd (mouse PD-L1-Fc [2]) [nM] | binding result (human PD-L2-Fc [3]) | binding result (human PD1-Fc) | binding result (human PD-L2-Fc [4]) | binding result (mouse PD-L1-Fc [5]) | Kd (human PD-L1-Fc [6]) [nM] | Binder
no binding | 0.179 | no binding | 0.101 | no binding | no binding | – | – | – | ADI-20227 (antibody, V domains shown) VH: QVQLQESGPGLVKPSQTLSLTCTVSGGSIVSGGLYWSWIRQHPGKGLEWIGYIYYAGVTYYNPSLKSRVTISVDTSKNQFSLKLSSVTAADTAVYYCARGPRMGLAGMDVWGQGTTVTVSS VL: DIQMTQSPSSVSASVGDRVTITCRASQGISSWLAWYQQKPGKAPKLLIYAASSLQSGVPSRFSGSGSGTDFTLTISSLQPEDFATYYCQQANSFPITFGGGTKVEIK
– | – | – | – | – | – | no binding | – | – | ADI-20227 Fab (antibody, V domains shown) VH: QVQLQESGPGLVKPSQTLSLTCTVSGGSIVSGGLYWSWIRQHPGKGLEWIGYIYYAGVTYYNPSLKSRVTISVDTSKNQFSLKLSSVTAADTAVYYCARGPRMGLAGMDVWGQGTTVTVSS VL: DIQMTQSPSSVSASVGDRVTITCRASQGISSWLAWYQQKPGKAPKLLIYAASSLQSGVPSRFSGSGSGTDFTLTISSLQPEDFATYYCQQANSFPITFGGGTKVEIK
no binding | – | no binding | – | no binding | no binding | – | – | 0.188 | ADI-20803 (antibody, V domains shown) VH: QVQLVQSGAEVKKPGSSVKVSCKASGGTFRLYAISWVRQAPGQGLEWMGSIIPGFGSANYAQKFQGRVTITADESTSTAYMELSSLRSEDTAVYYCARDGGGGTSAYSFDPWGQGTLVTVSS VL: EIVLTQSPATLSLSPGERATLSCRASQSVSSYLAWYQQKPGQAPRLLIYDASNRATGIPARFSGSGSGTDFTLTISSLEPEDFAVYYCQQSINFPYTFGGGTKVEIK

Further lines, the binder ahead of its results:

Binder | binding result (human PD-L2-HIS) | Kd (human PD-L1-Fc [1]) [nM] | binding result (mouse PD-L2-Fc) | Kd (mouse PD-L1-Fc [2]) [nM] | binding result (human PD-L2-Fc [3]) | binding result (human PD1-Fc) | binding result (human PD-L2-Fc [4]) | binding result (mouse PD-L1-Fc [5]) | Kd (human PD-L1-Fc [6]) [nM]
ADI-16403 (antibody, V domains shown) VH: EVQLVESGGGLVQPGGSLRLSCAASGFTFSSYWMSWVRQAPGKGLEWVANIKSDGSEKYYVDSVKGRFTISRDNAKNSLYLQMNSLRAEDTAVYYCARVTYWADYMDVWGKGTTVTVSS VL: DIQMTQSPSTLSASVGDRVTITCRASQSISSWLAWYQQKPGKAPKLLIYKASSLESGVPSRFSGSGSGTEFTLTISSLQPDDFATYYCQQSGSLPPTFGGGTKVEIK | – | – | no binding | – | no binding | no binding | – | no binding | –
ADI-20803 Fab (antibody, V domains shown) VH: QVQLVQSGAEVKKPGSSVKVSCKASGGTFRLYAISWVRQAPGQGLEWMGSIIPGFGSANYAQKFQGRVTITADESTSTAYMELSSLRSEDTAVYYCARDGGGGTSAYSFDPWGQGTLVTVSS VL: EIVLTQSPATLSLSPGERATLSCRASQSVSSYLAWYQQKPGQAPRLLIYDASNRATGIPARFSGSGSGTDFTLTISSLEPEDFAVYYCQQSINFPYTFGGGTKVEIK | – | – | – | – | – | – | no binding | – | –
